In US20190161551A1 (Regeneron, published 2019):

B1: human brain derived neurotrophic factor (ligand, UniProt P23560 129-247, looked up)
chain: HSDPARRGELSVCDSISEWVTAADKKTAVDMSGGTVTVLEKVPVSKGQLKQYFYETKCNPMGYTKEGCRGIDKRHWNSQCRTTQSYVRALTMDSKKRIGWRFIRIDTSCVCTLTIKRGR
B2: M2aM14178N (antibody, mouse IgG2a, V domains shown)
VH: EVQLVESGGGLVKPGGSLKLSCTASGFTFSSYAMSWVRQTPEKRLEWVANISDGGTYTYYPDNIKGRFTISRDNAKNNLYLQMSHLESEDTAMYYCIRGDVYYVRFAYWGQGTLVTVSA
VL: QAVVTQESALTTSPGETVTLTCRSSTGAVTSSNHANWVQEKPDHLFTGLIGGTNNRAPGVPARFSGSLIGDKAALTITGAQTEDEAIYFCALWHSNHWVFGGGTKLTVLG
notes: Anti-mouse TrkB antibody from hybridoma, mouse IgG2a Fc; also called surrogate anti-mouse TrkB antibody
B3: rat TrkB extracellular domain expressed with a C-terminal myc-myc-hexahistidine tag (receptor)
chain: CPMSCKCSTTRIWCTEPSPGIVAFPRLEPNSIDPENITEILIANQKRLEIINEDDVEAYVGLKNLTIVDSGLKFVAYKAFLKNGNLRHINFTRNKLTSLSRRHFRHLDLSDLILTGNPFTCSCDIMWLKTLQETKSSPDTQDLYCLNESSKNTPLANLQIPNCGLPSARLAAPNLTVEEGKSVTISCSVGGDPLPTLYWDVGNLVSKHMNETSHTQGSLRITNISSDDSGKQISCVAENLVGEDQDSVNLTVHFAPTITFLESPTSDHHWCIPFTVRGNPKPALQWFYNGAILNESKYICTKIHVTNHTEYHGCLQLDNPTHMNNGDYTLMAKNEYGKDERQISAHFMGRPGVDYETNPNYPEVLYEDWTTPTDIGDTTNKSNEIPSTDVADQTNREHEQKLISEEDLGGEQKLISEEDLHHHHHH
notes: also called rTrkB.mmH; rTRKB.mmH

Tests used:
[1] = biological target: T1, human TrkB expressed on HEK293/SRE-Luc/hTrkB cells (human, UniProt Q16620 32-822); assay: cell-based or functional assay
T1 sequence (Q16620 32-822): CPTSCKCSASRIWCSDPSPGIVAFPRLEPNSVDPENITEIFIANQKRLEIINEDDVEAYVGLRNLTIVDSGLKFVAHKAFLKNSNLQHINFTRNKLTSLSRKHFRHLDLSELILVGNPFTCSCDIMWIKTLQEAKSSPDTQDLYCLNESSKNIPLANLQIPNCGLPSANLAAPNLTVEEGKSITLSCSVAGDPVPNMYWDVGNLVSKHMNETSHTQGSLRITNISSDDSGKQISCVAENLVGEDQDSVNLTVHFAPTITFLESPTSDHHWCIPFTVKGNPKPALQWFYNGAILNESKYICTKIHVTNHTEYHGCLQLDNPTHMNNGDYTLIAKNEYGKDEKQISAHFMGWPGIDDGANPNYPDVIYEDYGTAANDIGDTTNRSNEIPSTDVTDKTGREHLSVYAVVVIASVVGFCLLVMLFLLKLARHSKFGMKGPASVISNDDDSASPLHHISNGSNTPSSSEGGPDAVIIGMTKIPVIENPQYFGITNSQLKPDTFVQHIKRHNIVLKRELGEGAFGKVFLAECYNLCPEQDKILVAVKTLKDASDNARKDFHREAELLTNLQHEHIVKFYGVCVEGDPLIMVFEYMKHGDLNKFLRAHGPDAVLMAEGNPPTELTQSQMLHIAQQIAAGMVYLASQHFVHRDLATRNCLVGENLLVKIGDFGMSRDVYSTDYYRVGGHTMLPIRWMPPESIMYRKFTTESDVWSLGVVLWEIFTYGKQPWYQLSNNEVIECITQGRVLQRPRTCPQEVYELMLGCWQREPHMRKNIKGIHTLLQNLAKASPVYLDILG

[2] = biological target: T2, mouse TrkB extracellular domain fused to the transmembrane and cytoplasmic domains of human TrkB, expressed … (mouse; human, UniProt Q16620 431-822, limits assumed); assay: cell-based or functional assay
T2 sequence (Q16620 other isoform, or with tags, fused parts or gaps limits assumed, form in doubt): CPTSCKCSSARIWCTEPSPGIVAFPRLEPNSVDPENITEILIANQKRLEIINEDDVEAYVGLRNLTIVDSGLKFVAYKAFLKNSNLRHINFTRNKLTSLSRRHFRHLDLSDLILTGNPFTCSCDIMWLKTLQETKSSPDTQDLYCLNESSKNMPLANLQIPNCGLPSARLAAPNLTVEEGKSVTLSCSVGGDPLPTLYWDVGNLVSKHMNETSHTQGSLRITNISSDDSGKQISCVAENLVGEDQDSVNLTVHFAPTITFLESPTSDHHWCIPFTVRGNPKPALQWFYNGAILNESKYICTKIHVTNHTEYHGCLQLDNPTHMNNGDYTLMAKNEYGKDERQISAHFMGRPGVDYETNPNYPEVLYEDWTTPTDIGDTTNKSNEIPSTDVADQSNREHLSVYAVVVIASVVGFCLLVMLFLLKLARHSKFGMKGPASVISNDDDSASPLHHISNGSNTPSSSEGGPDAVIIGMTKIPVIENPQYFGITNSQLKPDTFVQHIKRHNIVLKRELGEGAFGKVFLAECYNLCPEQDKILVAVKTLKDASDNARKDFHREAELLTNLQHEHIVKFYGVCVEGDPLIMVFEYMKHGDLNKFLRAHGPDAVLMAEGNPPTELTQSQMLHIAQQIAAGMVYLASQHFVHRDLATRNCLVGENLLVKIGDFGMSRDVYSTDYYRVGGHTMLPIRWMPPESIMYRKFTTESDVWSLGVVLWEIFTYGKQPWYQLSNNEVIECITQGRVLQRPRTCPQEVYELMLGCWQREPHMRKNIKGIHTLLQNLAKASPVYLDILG

[3] = biological target: T1, human TrkB expressed on …; assay: cell-based or functional assay; remark: listed apart in the source
[4] = biological target: T2, mouse TrkB extracellular domain fused …; assay: cell-based or functional assay; remark: listed apart in the source
[5] = biological target: T3, mouse TrkB.hFc (mouse); assay: BLI Octet, captured mTrkB.hFc, 300 nM mAb (NT-4 run)
T3 construct: also called mTrkB.hFc; mTrkB-hFc
T3 sequence (chain, as listed by the source limits assumed): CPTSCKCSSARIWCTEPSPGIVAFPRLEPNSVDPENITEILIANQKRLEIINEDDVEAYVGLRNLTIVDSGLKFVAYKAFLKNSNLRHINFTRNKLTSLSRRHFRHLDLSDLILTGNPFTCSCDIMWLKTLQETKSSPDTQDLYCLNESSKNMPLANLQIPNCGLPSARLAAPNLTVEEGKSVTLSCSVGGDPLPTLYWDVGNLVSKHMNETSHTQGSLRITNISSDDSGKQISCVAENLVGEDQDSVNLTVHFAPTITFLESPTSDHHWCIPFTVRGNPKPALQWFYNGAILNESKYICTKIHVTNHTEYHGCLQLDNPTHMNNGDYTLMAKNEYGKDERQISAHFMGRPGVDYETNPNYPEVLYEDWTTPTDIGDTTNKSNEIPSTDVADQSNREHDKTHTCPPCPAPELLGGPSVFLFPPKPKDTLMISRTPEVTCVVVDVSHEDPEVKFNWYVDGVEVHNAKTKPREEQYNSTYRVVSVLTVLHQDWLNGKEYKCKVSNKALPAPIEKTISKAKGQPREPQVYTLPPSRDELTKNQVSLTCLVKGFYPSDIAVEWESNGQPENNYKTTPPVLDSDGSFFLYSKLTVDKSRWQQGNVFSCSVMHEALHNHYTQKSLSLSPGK
Procedure: (§1) Blocking of BDNF or NT-4 from binding to TrkB by anti-human TrkB or anti-mouse TrkB antibodies was evaluated using a real-time bio-layer interferometry (BLI) based Octet HTX instrument. The entire study was performed in 10 mM HEPES pH 7.4, 300 mM NaCl, 3 mM EDTA, 1 mg/mL BSA, 0.02% NaN3 and 0.05% v/v Surfactant Tween-20 (HBS-EBT running buffer) at 25° C. All the samples were dispensed in a 384 tilted well plate and the plate was placed on the orbital shaker with the shake speed of 1000 rpm. hTrkB.mFc was captured on anti-mFc (AMC) Octet sensors while hTrkB.hFc or mTrkB.hFc were captured on anti-hFc (AHC) Octet sensors by dipping in wells containing 10 μg/mL of TrkB reagents for 2 minutes. hTrkB.mFc or hTrkB.hFc captured Octet biosensors were saturated by dipping in wells containing 300 nM of different TrkB mAbs for 4 minutes followed by dipping Octet biosensors in wells containing 20 nM of BDNF, hNT-4, or mNT-4 for 2 minutes. Binding of BDNF, hNT-4, or mNT-4 to the complex of TrkB and different TrkB mAbs was determined using Scrubber 2.0c analysis software.

[6] = biological target: T3, mouse TrkB.hFc; assay: BLI Octet, captured mTrkB.hFc saturated with mNT-4, 300 nM mAb
Procedure: (§2) Blocking of anti-human TrkB or anti-mouse TrkB antibodies from binding to TrkB by BDNF or NT-4 was evaluated using a real-time bio-layer interferometry (BLI) based Octet HTX instrument. The entire study was performed in 10 mM HEPES pH 7.4, 300 mM NaCl, 3 mM EDTA, 1 mg/mL BSA, 0.02% NaN3 and 0.05% v/v Surfactant Tween-20 (HBS-EBT running buffer) at 25° C. All the samples were dispensed in a 384 tilted well plate and the plate was placed on the orbital shaker with the shake speed of 1000 rpm. hTrkB.mFc was captured on anti-mFc (AMC) Octet sensors while hTrkB.hFc or mTrkB.hFc were captured on anti-hFc (AHC) Octet sensors by dipping in wells containing 10 μg/mL of TrkB reagents for 2 minutes. hTrkB.mFc or hTrkB.hFc captured Octet biosensors were saturated by dipping in wells containing 20 nM of BDNF, hNT-4, or mNT-4 for 2 minutes followed by dipping Octet biosensors in wells containing 300 nM of different TrkB mAbs for 4 minutes. Binding of TrkB mAbs to the complex of TrkB and BDNF, hNT-4, or mNT-4 was determined using Scrubber 2.0c analysis software.

[7] = biological target: T3, mouse TrkB.hFc; assay: BLI Octet, captured mTrkB.hFc saturated with BDNF, 300 nM mAb
Procedure: as §2

[8] = biological target: T3, mouse TrkB.hFc; assay: BLI Octet, captured mTrkB.hFc, 300 nM mAb (BDNF run)
Procedure: as §1

[9] = biological target: T4, mouse TrkB extracellular domain expressed with a C-terminal myc-myc-hexahistidine tag (mouse, UniProt P15209 32-429); assay: SPR Biacore T200, mAb captured (anti-mFc), 25C
T4 construct: also called mTrkB.mmH; mTRKB.mmH
Procedure: (§3) Equilibrium dissociation constants (KD values) for TrkB binding to purified anti-TrkB monoclonal antibodies were determined using a real-time surface plasmon resonance biosensor using a Biacore T200 instrument. All binding studies were performed in 10 mM Hepes pH 7.4, 150 mM NaCl, 3 mM EDTA, and 0.05% v/v Surfactant Tween-20 (HBS-ET running buffer) at 25° C. The Biacore sensor surface was first derivatized by amine coupling with rabbit anti-mouse Fc polyclonal antibody (GE Healthcare #BR-1008-38) to capture anti-TrkB monoclonal antibodies. Binding studies were performed on the following TrkB reagents; human TrkB extracellular domain expressed with a C-terminal myc-myc-hexahistidine tag (hTrkB.mmH; SEQ ID NO: 76; NP_001018074.1), mouse TrkB extracellular domain expressed with a C-terminal myc-myc-hexahistidine tag (mTRKB.mmH; SEQ ID NO: 79; NP_001020245), and rat TrkB extracellular domain expressed with a C-terminal myc-myc-hexahistidine tag (rTRKB.mmH; SEQ ID NO: 84; XP_002721319.1). […] Kinetic association (kₐ) and dissociation (kd) rate constants were determined by fitting the real-time binding sensorgrams to a 1:1 binding model with mass transport limitation using Scrubber 2.0c curve-fitting software. Binding dissociation equilibrium constants (KD) and dissociative half-lives (t½) were calculated from the kinetic rate constants as: […]

[10] = biological target: T5, human TrkB extracellular domain expressed with a C-terminal myc-myc-hexahistidine tag (human, UniProt Q16620 32-430); assay: SPR Biacore T200, mAb captured (anti-mFc), 25C
T5 construct: also called hTrkB.mmH; hTRKB.mmH
Procedure: as §3

[11] = biological target: B3; assay: SPR Biacore T200, mAb captured (anti-mFc), 25C
Procedure: as §3

[12] = biological target: T3, mouse TrkB.hFc; assay: BLI Octet, captured mTrkB.hFc, 300 nM mAb, no ligand
Procedure: as §2

[13] = biological target: B3; assay: blocking ELISA, rat TrkB.mmh pre-mixed with mAb, plate-coated BDNF
Procedure: (§4) Experiments were carried out using the following procedure. Human BDNF was coated at a concentration of 0.5 μg/mL (for blocking mouse TrkB.hFc interaction) or 0.3 μg/mL (for blocking rat TrkB.mmh interaction) in PBS on 96-well microtiter plate and incubated overnight at 4° C. […] In a 96-well dilution plate, 850 pM mouse TrkB.hFc or rat TrkB.mmh was mixed with the three-fold serially diluted anti-mouse TrkB antibodies and control antibody. The final antibody concentrations ranged from 1.69 pM to 100 nM. The protein-antibody mix was incubated at room temperature (RT) for 1 hour. The pre-bound mix was then transferred in duplicates to microtiter plates coated with BDNF. A control containing assay buffer alone was included to calculate the baseline of the assay. The ELISA plates were incubated at RT for 1 hour and then washed with plate washing solution. Plate-bound mouse TrkB.hFc was detected with HRP-conjugated goat anti-human Fcγ fragment specific antibody (Jackson Immunoresearch) and rat TrkB.mmh was detected with HRP-conjugated anti-histidine antibody (Qiagen). The plates were incubated with detection antibody for 1 hour at RT and then washed with plate washing solution. The assay plates were developed with TMB colorimetric substrates according to the manufacturer's recommended procedure.
(§5) The absorbance at 450 nm for each well was recorded and plotted as a function of the concentration of antibody. Data was analyzed in GraphPad Prism software using a four-parameter logistic equation over an 11-point dose response curve and IC₅₀ values were calculated. […] Percent blockade at maximum concentration of the antibody tested was calculated as an indicator of the ability of the antibodies to block the binding of TrkB to BDNF on the plate relative to the baseline of the assay. Binding signal of 850 pM mouse or rat TrkB in absence of the antibody was defined as 100% binding or 0% blocking. The baseline signal of assay buffer alone was defined as 0% binding or 100% blocking.

[14] = biological target: T3, mouse TrkB.hFc; assay: blocking ELISA, mouse TrkB.hFc pre-mixed with mAb, plate-coated BDNF
Procedure: as §4, §5

[15] = biological target: B1; assay: ELISA: dose curve of rat TrkB.mmh binding to plate-coated BDNF, absorbance 450 nm
Procedure: as §4, with “A control containing assay buffer alone was included to calculate the baseline of the assay. The ELISA plates were incubated at RT for 1 hour and then washed with plate washing solution.” left out, “The plates were incubated with detection antibody for 1 hour at RT and then washed with plate washing solution. The assay plates were developed with TMB colorimetric substrates according to the manufacturer's recommended procedure.” left out
as §5, with “Binding signal of 850 pM mouse or rat TrkB in absence of the antibody was defined as 100% binding or 0% blocking. The baseline signal of assay buffer alone was defined as 0% binding or 100% blocking.” left out

[16] = biological target: B1; assay: ELISA, dose-response of TrkB on plate-coated BDNF
From the text: FIG. 5. Consists of FIG. 5A and FIG. 5B which show the ability of anti-mouse TrkB monoclonal antibodies to block interaction between mouse or rat TrkB and its ligand BDNF (Brain Derived Neurotrophic Factor). ELISA-based methods were used to assess the binding of (FIG. 5A with two graphs) mouse TrkB.hFc and (FIG. 5B with two graphs) rat TrkB.mmh to plate coated BDNF in presence of a range of concentrations of Anti-mouse TrkB and isotype control mAbs. […] Molarity (M) indicates antibody concentration for mAbs. Error bars represent Standard Deviation.
Experiments were carried out using the following procedure. Human BDNF was coated at a concentration of 0.5 μg/mL (for blocking mouse TrkB.hFc interaction) or 0.3 μg/mL (for blocking rat TrkB.mmh interaction) in PBS on 96-well microtiter plate and incubated overnight at 4° C. […] In a 96-well dilution plate, 850 pM mouse TrkB.hFc or rat TrkB.mmh was mixed with the three-fold serially diluted anti-mouse TrkB antibodies and control antibody. The final antibody concentrations ranged from 1.69 pM to 100 nM. The protein-antibody mix was incubated at room temperature (RT) for 1 hour. […] Plate-bound mouse TrkB.hFc was detected with HRP-conjugated goat anti-human Fcγ fragment specific antibody (Jackson Immunoresearch) and rat TrkB.mmh was detected with HRP-conjugated anti-histidine antibody (Qiagen). […]

## B1
[1]
  BDNF EC50 (M), SRE-luciferase (run of the 100 pM BDNF columns): 1e-10 M
  BDNF EC50 (M), SRE-luciferase (run of the No BDNF columns): 1.3e-10 M
[2]
  BDNF EC50 (M), SRE-luciferase (run of the 100 pM BDNF columns): 1.1e-10 M
  BDNF EC50 (M), SRE-luciferase (run of the No BDNF columns): 7.4e-11 M
[3]
  BDNF EC50 (M), SRE-luciferase: 1e-10 M
[4]
  BDNF EC50 (M), SRE-luciferase: 7.4e-11 M

## B2
[5]
  mAb Binding (nm): 0.47 nm
[6]
  antibody Binding (nm): 0.41 nm
[7]
  antibody Binding (nm): 0.35 nm
[8]
  mAb Binding (nm): 0.47 nm
[1]
  Activation (%), SRE-luciferase, 100 pM BDNF: 52%
  Activation (%), SRE-luciferase, No BDNF: 0%
[2]
  Activation (%), SRE-luciferase, 100 pM BDNF: 67%
  Activation (%), SRE-luciferase, No BDNF: 76%
  EC50 (M), SRE-luciferase, 100 pM BDNF: 1e-10 M
  EC50 (M), SRE-luciferase, No BDNF: 1.9e-10 M
[9]
  90 nM TrkB.mmH Bound (RU): 12 RU
  Kd: 2.39 nM
  koff: 0.000247 s⁻¹
  kon: 103000 M⁻¹ s⁻¹
  t½: 47 min
[10]
  90nM hTrkB.mmH Bound (RU): -1 RU
[11]
  90 nM rTrkB.mmH Bound (RU): 11 RU
  Kd: 2.56 nM
  koff: 0.00023 s⁻¹
  kon: 90000 M⁻¹ s⁻¹
  t½: 50 min
[12]
  antibody Binding (nm): 0.47 nm
[13]
  % Blockade with 100 nM antibody: 89.5%
  IC50: 0.184 nM
[14]
  % Blockade with 100 nM antibody: 84.4%
  IC50: 0.426 nM

## B3
[15]
  EC50: 2.22 nM
[16]
  EC50: 2.2 nM
